Measurements from the RNAGym collection of RNA variant scans (doi:10.1093/molbev/msab373).

B1: Azoarcus group I ribozyme (parent)
chain: GUGCCUUGCGCCGGGAAACCACGCAAGGGAUGGUGUCAAAUUCGGCGAAACCUAAGCGCCCGCCCGGGCGUAUGGCAACGCCGAGCCAAGCUUCGGCGCCUGCGCCGAUGAAGGUGUAGAGACUAGACGGCACCCACCUAAGGCAAACGCUAUGGUGAAGGCAUAGUCCAGGGAGUGGCGAAAGUCACACAAACCGG

Variants of: B1
Test: reverse-splicing fitness (ratio to wild type); higher = more active; in vitro selection; Mg2+ level not given
In short: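 An in vitro group I ribozyme library with randomized positions was T7-transcribed and gel-purified. In triplicate, 10 pmol RNA in EPPS pH 7.5 was reacted with 50 pmoles of a 30-nt RNA substrate for 1 h at 37 °C across several added MgCl2 levels (1–48 mM), then stopped with EDTA. Products were reverse transcribed from a substrate-complementary primer, PCR-amplified and sequenced (HiSeq 4000). Fitness is a variant's read proportion after selection over that before, normalised to wild type.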
C82G A111U A120U C169A U176G showed a reverse-splicing fitness of 0.00169. C82G A111U A120U C169A U176A showed a reverse-splicing fitness of 0.00362. Work on C82G A111U A120U C169A U176C yielded a reverse-splicing fitness of 0.00299. With C82G A111U A120U A145U C150G C169A the reverse-splicing fitness was 0.00362. With C82G A111U A120U A145U C150G C169G the reverse-splicing fitness was 0.00336. In the case of C82G A111U A120U A145U C150G C169U, the reverse-splicing fitness is reported as 0.0032. C82G A111U A145C C169U U176G gave a reverse-splicing fitness of 0.00474. Work on C82G A111U A145C C169U U176C yielded a reverse-splicing fitness of 0.0119. Variant C82G A111U A145C C169U U176A has a reverse-splicing fitness of 0.014. In the case of C82G A111U A120U A145C C169U U176A, the reverse-splicing fitness is reported as 0.00287. C82G A111U A120U A145C C169U U176G showed a reverse-splicing fitness of 0.00178. Work on C82G A111U A120U A145C C169U U176C yielded a reverse-splicing fitness of 0.00238. In the case of C82G A111U A120U A145C C150U C169A U176C, the reverse-splicing fitness is reported as 0.0022. With C82G A111U A120U A145C C150U C169A U176G the reverse-splicing fitness was 0.00176. Work on C82G A111U A120U A145C C150U C169A U176A yielded a reverse-splicing fitness of 0.00212. Work on C82G A111U A120U A145C C150G C169U U176C yielded a reverse-splicing fitness of 0.00279. Work on C82G A111U A120U A145C C150G C169U U176G yielded a reverse-splicing fitness of 0.00252. Work on C82G A111U A145G C150U C169A U176C yielded a reverse-splicing fitness of 0.0164. C82G A111U A145G C150U C169A U176G showed a reverse-splicing fitness of 0.00701. Work on C82G A111U A145G C150U C169A U176A yielded a reverse-splicing fitness of 0.0163. Work on C82G A111U A120U A145U C150U U176A yielded a reverse-splicing fitness of 0.00894. C82G A111U A120U A145U C150U U176C showed a reverse-splicing fitness of 0.0131. For C82G A111U A120U A145U C150U U176G, the reverse-splicing fitness was 0.00302. C82G A111U A145C C169A gave a reverse-splicing fitness of 0.00732. C82G A111U A145C C169U gave a reverse-splicing fitness of 0.0121. With C82G A111U A145C C169G the reverse-splicing fitness was 0.00826. In the case of C82G A111U A145C C150G C169U U176G, the reverse-splicing fitness is reported as 0.00634. Work on C82G A111U A145C C150G C169U U176A yielded a reverse-splicing fitness of 0.00891. For C82G A111U A145C C150G C169U U176C, the reverse-splicing fitness was 0.0102. In the case of C82G A111U A120U A145G C150U C169G, the reverse-splicing fitness is reported as 0.00641. C82G A111U A120U A145G C150U C169A gave a reverse-splicing fitness of 0.00699. C82G A111U A120U A145G C150U C169U gave a reverse-splicing fitness of 0.00655. With C82G A111U A120U A145G C169G the reverse-splicing fitness was 0.00479. In the case of C82G A111U A120U A145G C169A, the reverse-splicing fitness is reported as 0.00459. With C82G A111U A120U A145G C169U the reverse-splicing fitness was 0.00483. C82G A111U A120U A145G C150U C169U U176C showed a reverse-splicing fitness of 0.00501. C82G A111U A120U A145G C150U C169U U176A showed a reverse-splicing fitness of 0.00518. Work on C82G A111U A120U A145G C150U C169U U176G yielded a reverse-splicing fitness of 0.00302. With C82G A111U A120U A145U C150A U176G the reverse-splicing fitness was 0.00291. For C82G A111U A120U A145U C150A U176C, the reverse-splicing fitness was 0.00518. Work on C82G A111U A120U A145U C150A U176A yielded a reverse-splicing fitness of 0.00457. In the case of C82G A111U A120U C150U C169A U176A, the reverse-splicing fitness is reported as 0.00512. C82G A111U A120U C150U C169A U176C showed a reverse-splicing fitness of 0.00328. In the case of C82G A111U A120U C150U C169A U176G, the reverse-splicing fitness is reported as 0.00241. C82G A111U A120U A145G U176C gave a reverse-splicing fitness of 0.0173. Variant C82G A111U A120U A145G U176A has a reverse-splicing fitness of 0.0121. With C82G A111U A120U A145G U176G the reverse-splicing fitness was 0.00338. For C82G A111U A120U A145G C169A U176G, the reverse-splicing fitness was 0.00196. C82G A111U A120U A145G C169A U176C gave a reverse-splicing fitness of 0.00529. C82G A111U A120U A145G C169A U176A gave a reverse-splicing fitness of 0.00574. For C82G A111U A145C C150A C169G U176G, the reverse-splicing fitness was 0.00716. In the case of C82G A111U A145C C150A C169G U176C, the reverse-splicing fitness is reported as 0.0155. For C82G A111U A145C C150A C169G U176A, the reverse-splicing fitness was 0.0227. C82G A111U A120U C169U gave a reverse-splicing fitness of 0.00476. C82G A111U A120U C169A gave a reverse-splicing fitness of 0.0043. With C82G A111U A120U C169G the reverse-splicing fitness was 0.00462. With C82G A111U A120U A145C C150U C169U the reverse-splicing fitness was 0.00298. For C82G A111U A120U A145C C150U C169A, the reverse-splicing fitness was 0.00282. For C82G A111U A120U A145C C150U C169G, the reverse-splicing fitness was 0.00286. C82G A111U A145G C150A C169A U176A gave a reverse-splicing fitness of 0.0183. C82G A111U A145G C150A C169A U176C gave a reverse-splicing fitness of 0.0216. For C82G A111U A145G C150A C169A U176G, the reverse-splicing fitness was 0.00721. With C82G A111U A120U A145U U176A the reverse-splicing fitness was 0.0108. C82G A111U A120U A145U U176C gave a reverse-splicing fitness of 0.0192. C82G A111U A120U A145U U176G showed a reverse-splicing fitness of 0.00425. Variant C82G A111U A120U C150A C169G U176A has a reverse-splicing fitness of 0.00827. Work on C82G A111U A120U C150A C169G U176G yielded a reverse-splicing fitness of 0.00223. C82G A111U A120U C150A C169G U176C gave a reverse-splicing fitness of 0.00406. C82G A111U A145C C150G C169A U176G showed a reverse-splicing fitness of 0.00713. C82G A111U A145C C150G C169A U176A showed a reverse-splicing fitness of 0.00976. Work on C82G A111U A145C C150G C169A U176C yielded a reverse-splicing fitness of 0.00812. Variant C82G A111U A120U A145G C150A C169A U176G has a reverse-splicing fitness of 0.00334. C82G A111U A120U A145G C150A C169A U176A showed a reverse-splicing fitness of 0.00821. Variant C82G A111U A120U A145G C150A C169A U176C has a reverse-splicing fitness of 0.00438. For C82G A111U A120U A145U C150A C169G, the reverse-splicing fitness was 0.00289. In the case of C82G A111U A120U A145U C150A C169U, the reverse-splicing fitness is reported as 0.00264. C82G A111U A120U A145U C150A C169A gave a reverse-splicing fitness of 0.00224. In the case of C82G A111U A145C C150U C169G, the reverse-splicing fitness is reported as 0.00762. C82G A111U A145C C150U C169U showed a reverse-splicing fitness of 0.0104. C82G A111U A145C C150U C169A gave a reverse-splicing fitness of 0.00882. For C82G A111U A145C C150U C169U U176C, the reverse-splicing fitness was 0.0098. For C82G A111U A145C C150U C169U U176A, the reverse-splicing fitness was 0.0136. Variant C82G A111U A145C C150U C169U U176G has a reverse-splicing fitness of 0.00613. For C82G A111U A120U A145U C150G C169A U176A, the reverse-splicing fitness was 0.00343.
